Results as given in paper PMC10953408.

Assays:
LgBit‐VEGFR‐2 = LgBit‐VEGFR‐2 (UniProt P35968); assay: split reporter (BiFC, NanoBiT); HiBit-IL23R (80 ng per well) co-transfected with LgBit-IL12Rβ1 or LgBit-VEGFR-2 (20 ng per well) in HEK293T cells; luminescence given as percent of that of the LgBit receptor alone with 50 nM purified HiBit; HBSS/0.1% BSA, 37°C
LgBit‐IL12Rβ1 [1] = molecular target: LgBit‐IL12Rβ1 (UniProt P42701); assay: as above
LgBit‐IL12Rβ1 [2] = molecular target: LgBit‐IL12Rβ1 (UniProt P42701); assay: split reporter (BiFC, NanoBiT); complementary NanoBiT-tagged receptor constructs co-expressed in HEK293T cells; luminescence of living cells in HBSS with 1 mg/ml BSA after furimazine, plate reader; with or without 10 nM IL-23, with or without co-expressed untagged IL12Rβ1
LgBit‐IL23R = LgBit‐IL23R (UniProt Q5VWK5); assay: as above
[3] = molecular target: NanoBiT complemented heteromer of HiBit‐IL23R and LgBit‐IL12Rβ1 (UniProt Q5VWK5); assay: FRET or BRET; NanoBiT BRET saturation: concentration titration of IL23-TMR for 1 h on living HEK293T cells expressing complemented NanoBiT receptors, with or without unlabelled IL-23; HBSS with 1 mg/ml BSA; one site total and nonspecific fit
[4] = molecular target: Trimeric or multimeric species of HiBit‐IL23R, LgBit‐IL23R and IL12Rβ1 (UniProt Q5VWK5); assay: as above
[5] = molecular target: NanoBiT complemented heteromer of HiBit‐IL23R and LgBit‐IL12Rβ1 (UniProt Q5VWK5)

## HiBit‐IL23R (from UniProt Q5VWK5 24-629) (receptor)
LgBit‐VEGFR‐2
  luminescence as percent of that of LgBit-VEGFR-2 with 50 nM purified HiBit: 11.6%
LgBit‐IL12Rβ1 [1]
  luminescence as percent of that of LgBit-IL12Rβ1 with 50 nM purified HiBit: 73%
LgBit‐IL12Rβ1 [2]
  fold luminescence over the mean of the receptor constructs expressed in isolation: 73.3 fold
LgBit‐IL23R
  fold lower luminescence than the equivalent heteromeric condition: 2.12 fold
  fold stronger luminescence than the SmBit homomer: 6.36 fold

## SmBit‐IL23R (from UniProt Q5VWK5 24-629) (receptor)
LgBit‐IL12Rβ1 [2]
  fold lower luminescence than HiBit-IL23R with LgBit-IL12Rβ1: 6.19 fold
  fold luminescence over the mean of the receptor constructs expressed in isolation: 10.3 fold
LgBit‐IL23R
  fold lower luminescence than the equivalent heteromeric condition: 2.18 fold

## Tetramethylrhodamine (TMR) tagged IL‐23 (from UniProt Q9NPF7 20-189; P29460 23-328) (ligand)
[3]
  Kd: 0.234 nM
[4]
  Kd: 0.0362 nM

## Recombinant IL‐23 (from UniProt Q9NPF7 20-189; P29460 23-328) (ligand)
[5]
  EC50 of STAT3 phosphorylation (phospho-STAT3 AlphaLISA), increasing concentrations of IL-23 on cells expressing HiBit-IL23R and LgBit-IL12Rβ1: 0.193 nM
